Where only a bound is given, the exact number is not on record here.

This is an account of results in patent publication US9358302.

Holding throughout (test): cell-based or functional assay
Assay [1] deals with OVA peptide 323-339 (OVAp).
The target of assay [2] is GBSIII-OVAp (GBSIII conjugated to N-acetylated, C-terminally extended OVA323-339).
Assay [3] deals with scrambled OVA peptide, scOVAp.

In assay [1], “T-cell receptor of DO11.10 transgenic mice that recognizes OVA peptide 323-339 in the context of MHC class II (I-A^d) (TCR)” came in with a T cell proliferation, [3H]thymidine incorporation, 2.5 µg OVAp of 285000 cpm; a T cell proliferation, stimulation index (SI), 0.013 µg OVAp of 35 SI; a T cell proliferation, stimulation index (SI), 0.13 µg OVAp of 781 SI; a T cell proliferation, stimulation index (SI), 1.3 µg OVAp of 2940 SI. In assay [2], this substance returned a T cell proliferation, [3H]thymidine incorporation, 10 µg GBSIII-OVAp of 12700 cpm and a fold lower T cell proliferation against the same amount of OVAp of 23 fold. The same substance had a T cell proliferation, [3H]thymidine incorporation in assay [3] of under 500 cpm.
